Test results from the DeepSol protein solubility set.

Assay: soluble on expression in E. coli; label from the status in PepcDB or PDB records

| Sequence | soluble on expression in E. coli |
| --- | --- |
| MGSSHHHHHHSSGLVPRGSHADYEVVHDTFEVNFDGWCNLGVDTYLTAVENEGNNGTRGMMVINRSSASDGAYSEKGFYLDGGVEYKYSVFVKHNGTGTETFKLSVSYLDSETEEENKEVIATKDVVAGEWTEISAKYKAPKTAVNITLSITTDSTVDFIFDDVTITRKGMAEANTVYAANAVLKDMYANYFRVGSVLNSGTVNNSSIKALILREFNSITCENEMKPDATLVQSGSTNTNIRVSLNRAASILNFCAQNNIAVRGHTLVWHSQTPQWFFKDNFQDNGNWVSQSVMDQRLESYIKNMFAEIQRQYPSLNLYAYDVVNAAVSDDANRTRYYGGAREPGYGNGRSPWVQIYGDNKFIEKAFTYARKYAPANCKLYYNDYNEYWDHKRDCIASICANLYNKGLLDGVGMQSHINADMNGFSGIQNYKAALQKYINIGCDVQITELDISTENGKFSLQQQADKYKAVFQAAVDINRTSSKGKVTAVCVWGPNDANTWLGSQNAPLLFNANNQPKPAYNAVASIIPQSEWGDGNNPA | soluble |
| KVSKGLILYPGAKVEIESYAPLARKIAESGYEVVIVKMPLNLAILGTNKAQKVMDSYNNIEHWVIGGHSLGGVAASNFARDNKLIEGVVFLASYPMGDELKELGKKVISIWGSKDGVVNFKSLVESKQKLPDDTTYVEIEGGNHAQFGDYGKQKGDNDAIISQEKQLNITANSIIKFLKNIS | not soluble |
| MSLSVAIIGPGAVGTTIAYELQQSLPHTTLIGRHAKTITYYTVPHAPAQDIVVKGYEDVTNTFDVIIIAVKTHQLDAVIPHLTYLAHEDTLIILAQNGYGQLEHIPFKNVCQAVVYISGQKKGDVVTHFRDYQLRIQDNALTRQFRDLVQDSQIDIVLEANIQQAIWYKLLVNLGINSITALGRQTVAIMHNPEIRILCRQLLLDGCRVAQAEGLNFSEQTVDTIMTIYQGYPDEMGTSMYYDIVHQQPLEVEAIQGFIYRRAREHNLDTPYLDTIYSFLRAYQQNEGHHHHHH | soluble |
| MRDIMSSPPITTLPMTSVKEAAKIMLENRVGSLIVVNERNTLLGILTKTDIIREVVAKGLDPESVRVGDIMTRNPYYVYTDDSVERAASLMGEHNIGHLPVLDPETEKPVGIVTKTDIVKLAPNYINVIYSLKQEIDRRERLKRIRK | soluble |
| MSSNVPADMINLRLILVSGKTKEFLFSPNDSASDIAKHVYDNWPMDWEEEQVSSPNILRLIYQGRFLHGNVTLGALKLPFGKTTVMHLVARETLPEPNSQGQRNREKTGESNCCVIL | soluble |
| MVRKLKTHEQKLLKKTDFMSWQVDQQGKQGDMLRKFYVKKREHYALYNTLAAKSREVADLIKNLSESDPFRSKCTEDMLTKFYAAGLVPTSDTLERIGKVTGASFARRRLPVVMRNIGMCESVKTASDLVEQGHVRIGTKLVTDPAFMVTRSSEDMITWTKASKIKKHVMDYNNTRDDFDLMD | not soluble |
| MGSDKIHHHHHHMFKKVSRDPVHSEIYLYPLEILATDTKVVQRLRFLSQLAGATVVYPGATHTRFAHSLGTMHVAGLYARNLFKESDRIRIVRLAALLHDVGHGPFSHQFDDVVFKRYGYEDGHDEFRNRLITEKLPEEMMRVFNSYNERLKQAVIEDIRESVGEVSLEDAFQEIAKRVVEVYRGEETGSVDFNIIQGPLGADRLDFLLRDSYYSGVGHFAPMNVDRVLRNSLVKEVDGKEILCYHVKVVDNIYSILFSRFMMYKNVYFHKTSRAADLMIQEILLRACEILDLEERLKDLDEFLELTDYSILRELELKGDSETKKLVERFKNRDLWKMVVERPFSAEGFDPSELSLSAARNLIDKIVENIDRVLSSVNVEDSDKSILEEIRDNKEKFFRIDTPYKLTIFHPDEFLQNNVFLYDPKHDEILTVDEYVKKYPAYRLMVSNMIQIVRVYVTEDVREVLFKYGVIPEDGRRVITRW | not soluble |
| MPSLQDLYAAFRRIAPYTHRTPLLTSRLLDGLLGKRLLLKAEHLQKTGSFKARGALSKALALENPKGLLAVSSGNHAQGVAYAAQVLGVKALVVMPEDASPYKKACARAYGAEVVDRGVTAKNREEVARALQEETGYALIHPFDDPLVIAGQGTAGLELLAQAGRMGVFPGAVLAPVGGGGLLAGLATAVKALSPTTLVLGVEPEAADDAKRSLEAGRILRLEAPPRTRADGVRTLSLGERTFPILRERVDGILTVSEEALLEAERLLFTRTKQVVEPTGALPLAAVLEHGARLPQTLALLLSGGNRDFSP | soluble |
| MSEIEELVCIEASVTRKSTSNTVEIRESRRNKVTLGSSDSPAFPTPHLFLKNIVSFDEQSMYNLLYPRLQDPNLCSILSFKIAFEAKRVPGPLYISYDVTLTPQIFEEPDMETCGLCLLEEQHLFDMPNCAHVFHGDCIDKWLSTSNNCPLCGVEIMDDDE | soluble |
| MTNIWKKNYETAKEVEEFVKKAYELGDVTELELLRAKRERSIAEVKLKVSRSKYEASLKELSRLLAKEVRDVEGELSAGVAMKEVNIDTLPVVLSIKKKIEAIDRQIQLEKALAKPKLATGFVVEESEEGYYGLRGSLTLELPLFYRREGEILQNIAMKKALKRRLEAELLKVKSRLESVKIRLETLQKELEKLEREVIPRAREELALAIKSYKLKAITLLELSDVRRKYYELLINRAELLLDIHRTYSEFIEIGGWRR | not soluble |
| MNKDLRPIIWNDSEKKLVLIDQRKLPNELVYFECKNYKDVCFAIKDMVVRGAPAIGVAAAYGMALAELNGEDMEKAYLELKKTRPTAVNLFWALEKIIAAKNSGKSLLDEAKLIHEEDIELCRKIGEIGEVLIDDFDTILTHCNAGALATSAYGTALSVIRFAHYNGKKINVLSDETRPRLQGAKLTCFELNYENIPVKAICDNTAGFMMSKGLVDKIIVGADRILSDYHVFNKIGTYSLAILAKYHNIPFYVAAPYSTFDFESKLEDIVIEERSESEVTHIDNVRIVAEGVSAYNFAFDCTPPELITGIITEKEIIYPNKLEHHHHHH | not soluble |
| MKGERLDKVLARLGLGSRKEVARLVRQGKVRVLGQVVKDPGFRVPEGAALEVEGRPLEVRRHLHVLLHKPPGFVTSRTEGPSVYALLQGFPTRDLSPVGRLDKDAEGLLLFTTDGLLLHRLTHPRHKVAKRYLVHLERPVGPKDQEAFREGILLDGKKTLPAELTPLEDPTWAEVVLKEGRFHQIKRMFRARGNRVLRLKRLALGPLELGDLPPGKARPLTEAEEKALYAAVGLGGEDPEDEV | soluble |
| MACKRLVPGGEIERTRRVLDLFADSGSRVIRPQQPVDVLGSEGPAKVLGQVQNNVAVQYDHMVRGIGHDTGLESDQVCRLTERGICVRELLTLVFGDKALGAEHGDIRRGHTQDAGVL | not soluble |
| MASTSKPAASTTAIKKYYFYVLLCADQTLYGGFTDNLQRRLATHNAGKGAKYTRVRSRRPLQLIYHETFTDKSSALKAEYAFKHQSRAAKLKYLSAHDVKILEHHHHHH | not soluble |
| MLKSIILLICAHCAFSDRLDAGSQADCVAAANKIYNNEWGFDHKLVYDKELEPFAAETPCGIAYLQNGLAEVGSGGAHTSVNLREEHTRIACVPKKCGGVEVACAVGGPSMALNLKRKIRKLRQIRCLRTFGATVTLKN | not soluble |
| MRDEKRKAIPAIGFYPQEEISTGTTLIAMEYNGGVVVGTDSRTSAGSFITSRATNKITPITDNMVVCRSGSAADTQAIADIAKYHIDVYTMTENKPVTIYRSSQIFRQFLYNYREQLSASVLVAGWDEELGGQVYAIPIGGFVSRQRSTASGSGSTFVQGFLDSQWRPNLTLEECKAIVKQAVGLATFRDGSSGGVVRLAVINKAGSQFELFRPDKPGFPFVQTPTPHLSFPPHIEQVL | not soluble |
| MSLTNLHYTVKSLMRFKDKTVIISGGGNSAIDWANELEPIAKKVYLTYRKEALNGHEAQISQLLSSSATCLFHTTISKLIARDNKEVIEQVELTDHQTGEVTNLAVDEVIINHGYERDKSLLDQSEVTLDRIDDYYIAGTPTSATSVGGIYAAGDVLKHEGKLHLIAGAFQDAANAVNQAKQWIEPEAHQSAMVSSHNHVFKERNRELIRQMLKEGHHHHHH | not soluble |
| MDRNFKLRQMFSDYLDNKNSNSTHTPPVRVHYPLIATMSPADKARFTVKKITEVEGEVLDAPLENAHPVFFAEPQFELRWYNKPDSLAGRFQTNAEAETTSKLAQRLLTLFLKTEMLESAFFKYDDIRAIRVFFMDDREMATDRLMAILDNILSVSMTKLGHFSDKMSVTVDYELRAFMSDQKKAKRLVLEAMLKYPEFIPDSWGGESAILKWKEMKEIDVRRREADIKEMAETERKEKEKVEKNKMEMTEKIKKKDEDEKAKKEKERIDKEEKIKKEVEEAEKKKKEEKEKRRKEVKKNREEQLSINPEMSRNDKKDVVEEKSCLDKGAKDAQKKKKQQDVVDKKKEKRKLKKTRTMEASRSREVSHEEHHQPPVLSTLATPSPVPSPSVPPTAPPSTPRKPMFGAVSQFLSGRKRREPSAEKIVEPPSKNSAAATKKTVRK | not soluble |
| MLNIDTQFVDTIGKILSDYVSHSEITRMGEVLGYPQNDQNSGFNKHKRVHNLVSDILNRTQNTDNIKLVIEYVCNPLRYINEVSIFEQLRTAINIPLSLKGLIVSDSGQIVTTTTSKTLSEAKKRFETLDSRLKELKVHPHVLKFCTQELLQENYFHAVFEASKGVFHRIRLLTGSAMDSASLIDQCFKPGEPIVIINGNKLQTLDEQSEYKGLKNLLLAIAHLYRNSKAHKLKYYNPDNLNDALTALTLMSLAHNLLDSCSNTRRLD | soluble |
| MNKKILIIDDNKMLGKLLAKKIQMTLDYEVDIAFGFAEAKELMNNDYFLAFVDLCLPDAPNGEVVDYVIEKKIPAIVLTASGDKATKEKFMDKDILDYIFKESETCIDEIISSIVKLNQYAKTKVIVAMSKLPERNEIKKILTQRQFNVLAAAHGEEAMSYLNDNNDVKLIIADVNMPVISGFELLTQVRERFSDDELGVILLGDHNDSFEANSFKNGVNEYLFKPLSKESFNCRLDRCLSYMDDKKFLSTYNVLDPVSGVKNYNALIDGIDDYFNEIATKDEEFAFAFLDIDNLQMINDEYGREVGDEVIKICANEIVNETKGRDLVGRYSAEKICILLKNISQERAIKIFSRIRVNIKKAGVLVNLDEVFFTASIGVVFGKSGDKIDSLADKASKILSQAKDNGKDRVEVCS | soluble |
| MRSATDLLDELNAVDESARIEAKRASDMGKSVMETVIAFANEPGLDGGYLLLGVDWAINDKGDTVYRPVGLPDPDKVQRDLASQCASMLNVALRPEMQLEQVGGKTLLVVYVPEADVTHKPIYKKATGLPGGAYRRIGSSDQRCVDEDLWVLRGESQPLHGPDSSILSDARADDFDPTAIAAYRRERARINPQAEELDYGDEDMLEALGALRRVDGVLQPTLAGIVLFGKPLALRRLLPMVRIDYIRVPGNEWVEDPENRFQSIDIRKPLMLALPLAEASIIDELPKGFRLPEGQLQSVQEPILPRKVIREALANAAMHRNYTLHSPTQIIRYSNRIEIRNVGYSLKEPAQLGLPGSRLRNPAIAAVLHDLHLAEAKGTGIRAMRRLAADAGLPLPEFHSDRQANEFKLTLFLHNLLTEEDHTWLRNYAGSTLGPDEAKVLIYVRATGAVDNTACRDFCGSDTLAASMVLRRLRDRGLLEKRGAGSRTYYTLAGNEPRPTLESAQSELPLDVPADTPPVGQPQPAEAVAGQQACNPQLATLPPELATLLATLQGRISSEALRDGIRRLCQWAPQSGDQLATLLGKDRDYLRNKHLIPMVRDGQLRFRYPESAKHPHQAYVAPEDKRNDLEHHHHHH | soluble |
| MDEEGASVVITIKNEAKNIQKLLDSLFNNDYEHFEVVVVDDMSNDGTEGIVKKYDKVKYIRTRCSRGEGRNIGAMNSSFENILFTDGDAIVSNGWIGGMVSVLNNGFEIAIGKTVYTGKKRYIQDRVKIYFNGIEITAPSVNLAYKKRAFFSLGGFDKRFVTAEDIDLNLRAAMSGFKFGFCNECVVYAKVRDSFISFLKQAFWNGYGRAQLEEKHPGMLKKTDIRLGHNFYDFMHMSAGAAGYLLYKLR | soluble |
